Test results as given in IntAct's records for PubMed 16956611.

B1: Histone deacetylase 7 (Mus musculus), Q8C2B3 (parent)
chain: MHSPGAGCPALQPDTPGSQPQPMDLRVGQRPTVEPPPEPALLTLQHPQRLHRHLFLAGLHQQQRSAEPMRLSMDPPMPELQGGQQEQELRQLLNKDKSKRSAVASSVVKQKLAEVILKKQQAALERTVHPSSPSIPYRTLEPLDTEGAARSVLSSFLPPVPSLPTEPPEHFPLRKTVSEPNLKLRYKPKKSLERRKNPLLRKESAPPSLRRRPAETLGDSSPSSSSTPASGCSSPNDSEHGPNPALGSEADGDRRTHSTLGPRGPVLGNPHAPLFLHHGLEPEAGGTLPSRLQPILLLDPSVSHAPLWTVPGLGPLPFHFAQPLLTTERLSGSGLHRPLNRTRSEPLPPSATASPLLAPLQPRQDRLKPHVQLIKPAISPPQRPAKPSEKPRLRQIPSAEDLETDGGGVGPMANDGLEHRESGRGPPEGRGSISLQQHQQVPPWEQQHLAGRLSQGSPGDSVLIPLAQVGHRPLSRTQSSPAAPVSLLSPEPTCQTQVLNSSETPATGLVYDSVMLKHQCSCGDNSKHPEHAGRIQSIWSRLQERGLRSQCECLRGRKASLEELQSVHSERHVLLYGTNPLSRLKLDNGKLTGLLAQRTFVMLPCGGVGVDTDTIWNELHSSNAARWAAGSVTDLAFKVASRELKNGFAVVRPPGHHADHSTAMGFCFFNSVAIACRQLQQHGKASKILIVDWDVHHGNGTQQTFYQDPSVLYISLHRHDDGNFFPGSGAVDEVGTGSGEGFNVNVAWAGGLDPPMGDPEYLAAFRIVVMPIAREFAPDLVLVSAGFDAAEGHPAPLGGYHVSAKCFGYMTQQLMNLAGGAVVLALEGGHDLTAICDASEACVAALLGNKVDPLSEESWKQKPNLSAIRSLEAVVRVHRKYWGCMQRLASCPDSWLPRVPGADAEVEAVTALASLSVGILAEDRPSERLVEEEEPMNL

Variants of: B1
Conditions: with 1433e_mouse Ywhae

Variant	effect of a mutation on the interaction
S178E;S344E;S479E	disrupting interaction

Variants of: B1
Conditions: with 1433e_mouse Ywhae
Remark: another data set of the same source

Variant	effect of a mutation on the interaction
S178E;S344E;S479E	disrupting interaction

Variants of: B1
Conditions: with mef2a_mouse Mef2a

Variant	effect of a mutation on the interaction
S178A;S344A;S479A	disrupting interaction strength
